Laboratory results from paper PMC3561149, “Bifurcation of Arabidopsis NLR Immune Signaling via Ca2+-Dependent Protein Kinases”.
Positions count from the first letter of the chain named.

Experiments:
[1] = molecular target: T1, MBP-WRKY48 (Arabidopsis thaliana (Col-0), UniProt Q9FGZ4 1-399); assay: EMSA; unphosphorylated; EMSA: 5x binding buffer (4% glycerol, 1 mM MgCl2, 0.5 mM EDTA, 0.5 mM DTT, 10 mM Tris-HCl pH 7.5), 1 ug poly-dIdC, BSA, 2.5 ug protein, ~20,000 cpm probe, room; conditions: protein: recombinant; tags: MBP (pMAL-C2); label: 32P 5' end label
[2] = molecular target: T1, MBP-WRKY48; assay: competition; unlabeled competitor vs labeled W-boxes; binding largely reduced; EMSA: 5x binding buffer (4% glycerol, 1 mM MgCl2, 0.5 mM EDTA, 0.5 mM DTT, 10 mM Tris-HCl pH 7.5), 1 ug poly-dIdC, BSA, 2.5 ug protein, ~20,000 cpm probe, room; conditions: protein: recombinant; tags: MBP (pMAL-C2); label: none

T1 sequence (Q9FGZ4 whole entry): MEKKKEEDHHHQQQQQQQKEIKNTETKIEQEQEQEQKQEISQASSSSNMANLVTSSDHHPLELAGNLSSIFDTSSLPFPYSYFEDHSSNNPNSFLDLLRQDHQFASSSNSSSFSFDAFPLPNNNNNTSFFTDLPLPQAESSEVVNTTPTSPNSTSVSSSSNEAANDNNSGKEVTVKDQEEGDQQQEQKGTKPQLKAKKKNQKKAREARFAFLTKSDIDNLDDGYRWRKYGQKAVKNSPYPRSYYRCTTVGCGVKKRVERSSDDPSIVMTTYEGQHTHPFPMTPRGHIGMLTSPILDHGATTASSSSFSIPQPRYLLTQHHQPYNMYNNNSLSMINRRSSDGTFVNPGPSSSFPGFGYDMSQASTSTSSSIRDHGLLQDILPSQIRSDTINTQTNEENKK

B1: W-boxes probe (four W-boxes of WRKY46 promoter) (dsDNA)
DNA 1: CTGTCAATTCTTTGACCCCAGTTGACGAATGTCAATT
DNA 2: AATTGACATTCGTCAACTGGGGTCAAAGAATTGACAG
Does B1 bind [1]?
Result: binds

B2: mW-boxes probe (mutated W-boxes) (dsDNA)
DNA 1: B1 DNA 1 with G3T, C16A, C26A, G31T
DNA 2: B1 DNA 2 with C7A, G12T, G22T, C35A
Does B2 bind [1]?
Result: no binding

B3: unlabeled W-boxes oligonucleotide (specific competitor) (dsDNA)
DNA 1: B1 DNA 1
DNA 2: B1 DNA 2
Does B3 bind [2]?
Result: binds
